The target of test [1] is T1, Mouse Tim-3-Fc (mouse, UniProt Q8VIM0).
T1 construct: coupled to human Fc; ELISA coating antigen for the cross-reactivity test; also called mouse TIM-3 coupled to human Fc
Put plainly: ELISA on coated mouse TIM-3-Fc, absorbance 450-670 nm.
Description: (§1) After a small-scale induction in HB2151 cells, Fab antibodies were screened by ELISA. […] After extensive washes in PBS Tween-20, Fab-containing supernatants from induction plates were transferred into the ELISA plates in the presence of 7% milk in PBS. After 90 minutes at room temperature under agitation and extensive washes, a goat anti-human Fab antibody coupled to HRP was added. One hour later, plates were washed and TMB substrate added. The reaction was stopped with 1M HCl and optical density measured at 450 nm with a reference at 670 nm. Antibodies giving an absorbance >0.1 were selected as positive.

Test [2] concerns the target T1, Mouse Tim-3-Fc. The test is described as above. The source holds these as a separate data set.
Description: as §1

Where a chain is given by its changes, count along the chain named. Read-outs that look alike come from different tables or passages of the source.

B1: anti-TIM-3 antibody clone B10 (antibody, V domains shown)
VH: QVQLQESGPGLVKASETLSLTCTVSGGSIGSSDYYWGWIRQPPGKGLEWIGSIYYSGSTYYNPSLKSRVTMSVDTPNNQFSLKLSSVTAADTAVYYCARGEHRGEFDYWGQGTLVTVSS
VL: EIVLTQSPATLSFSPGERATLSCRASQSVGSYLAWYQQRPGQAPRPLIYDATNRATGIPTRFSGSGSGTDFTLTISSLEPEDFATYYCQHRRTFGRGTKLEIK
notes: Screened as Fab, and SPR was recorded for 'each candidate Fab'
Regarding B1, the binding result in the test with Mouse Tim-3-Fc [1] was “no binding”.

B2: anti-TIM-3 antibody clone A3 (antibody, V domains shown)
VH: QVQLVQSGAEVKKPGASVKVSCKASGYTFTSYYMHWVRQAPGQGLEWMGIINPSGGSTSYAQKFQGRVTMTRDTSTSTVYMELSSLRSEDTAVYYCARSPGVVTALFDYWGQGTLVTVSS
VL: DIQMTQSPSFMSASVGDRVTITCRASQDIGSYLAWYQQKPGKAPKLLIYAASTLQSGVPSRFSGSGSGTDFTLTINSLQPEDFATYYCQQSYSSPPTFGPGTTLEIK
notes: Isolated from a human phage library and screened as Fab; SPR was recorded for 'each candidate Fab'
As for B2, the binding result with Mouse Tim-3-Fc [1] is on record as “no binding”.

B3: anti-TIM-3 antibody clone G7 (antibody, V domains shown)
VH: EVQLVQSGAEVKKPGASVKVSCKASGYTFTSYYMHWVRQAPGQGLEWMGIINPSGGSTSYAQKFQGRVTMTRDTSTSTVYMELSSLRSEDTAVYYCARDQYSSGWYYYGMDVWGQGTTVTVSS
VL: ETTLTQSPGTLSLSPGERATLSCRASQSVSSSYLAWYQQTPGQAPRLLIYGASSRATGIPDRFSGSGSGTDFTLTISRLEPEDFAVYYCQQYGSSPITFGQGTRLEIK
notes: as for B1
Take B3: the binding result with Mouse Tim-3-Fc [1] is reported as “no binding”.

B4: anti-TIM-3 antibody clone G9 (antibody, V domains shown)
VH: B3 VH with E1Q, V5Q, Q100L, S103Y, W105F
VL: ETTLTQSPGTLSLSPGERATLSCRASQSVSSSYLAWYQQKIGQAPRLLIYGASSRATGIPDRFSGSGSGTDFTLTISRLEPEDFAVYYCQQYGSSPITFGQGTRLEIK
notes: as for B1
As for B4, the binding result with Mouse Tim-3-Fc [1] is given as “no binding”.

B5: anti-TIM-3 antibody clone A11 (antibody, V domains shown)
VH: QVQLQQWGAGLLKPSETLSLTCAVYGGSFSGYYWSWIRQPPGKGLEWIGEINHSGSTNYNPSLKSRVTISVDTSKNQFSLKLSSVTAADTAVYYCARGYVAGFDYWGQGTLVTVSS
VL: QSVVTQPPSVSAAPGQKVTISCSGSSSNIGNNYVSWYQQLPGTAPKLLIYGNNWRPSGIPDRFSGSKSGTSATLAISGLQTGDEADYYCETWDSSLSAGVFGGGTKLTVL
notes: as for B1
With B5, the binding result with Mouse Tim-3-Fc [2] is given as “no binding”.

B6: anti-TIM-3 antibody clone G6 (antibody, V domains shown)
VH: QVQLQESGPGLVKPSGTLSLTCAVSGGSISSSNWWSWVRQPPGKGLEWIGEIYHSGSTNYNPSLKSRVTISVDKSKNQFSLKLSSVTAADTAVYYCARVVAVAGTVDYWGQGTLVTVSS
VL: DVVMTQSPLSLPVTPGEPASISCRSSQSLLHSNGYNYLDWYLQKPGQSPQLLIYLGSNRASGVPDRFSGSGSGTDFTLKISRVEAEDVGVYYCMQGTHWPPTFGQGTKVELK
notes: as for B1
On to B6, for which the binding result with Mouse Tim-3-Fc [1] is listed as “no binding”.

These data come from patent US20190185564A1 (AGENCY FOR SCIENCE TECHNOLOGY AND RESEARCH, published 2019).
